This test addresses DDX3-DQAD (human) (UniProt O00571).

B1: TCTP (translationally controlled tumor protein) (natural protein)
chain: MIIYRDLISHDEMFSDIYKIREIADGLCLEVEGKMVSRTEGNIDDSLIGGNASAEGPEGEGTESTVITGVDIVMNHHLQETSFTKEAYKKYIKDYMKSIKGKLEEQRPERVKPFMTGAAEQIKHILANFKNYQFFIGENMNPDGMVALLDYREDGVTPYMIFFKDGLEMEKC
As for B1, the increase of the let-7c-5p signal bound to DDX-DQAD on adding TCTP (500 nM TCTP, 300 nM DDX3-DQAD, 50 nM biotinylated let-7c-5p, non-denaturing gel), in the presence of AMP-PNP is 200% and the increase of the let-7c-5p signal bound to DDX-DQAD on adding TCTP (500 nM TCTP, 300 nM DDX3-DQAD, 50 nM biotinylated let-7c-5p, non-denaturing gel), in the presence of ATP stood at 50%.
